From US20250381223A1 (UTC THERAPEUTICS SHANGHAI, published 2025)
Positions count from the first letter of the chain named.

T1: BCMA-Fc recombinant protein (human, UniProt Q02223 1-54)
T1 construct: construct not described; not shown: Fc part
T1 sequence (looked up): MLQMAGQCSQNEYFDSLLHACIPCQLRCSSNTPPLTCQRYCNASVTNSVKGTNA

T2: CD123-Fc recombinant protein (human, UniProt P26951 19-305)
T2 construct: construct not described; not shown: Fc part
T2 sequence (looked up): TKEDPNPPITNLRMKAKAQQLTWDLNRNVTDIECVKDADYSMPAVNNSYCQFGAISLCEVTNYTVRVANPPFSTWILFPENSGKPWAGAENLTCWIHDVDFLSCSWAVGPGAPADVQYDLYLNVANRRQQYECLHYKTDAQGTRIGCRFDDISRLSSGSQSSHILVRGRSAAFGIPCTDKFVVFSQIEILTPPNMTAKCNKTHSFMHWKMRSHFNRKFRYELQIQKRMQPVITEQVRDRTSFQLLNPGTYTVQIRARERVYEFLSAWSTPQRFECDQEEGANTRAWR

B1: BCMA22 (scFv)
scFv: QSALTQPASVSGSPGQSITISCTGTSSDVGGYNYVSWYQQHPGKAPKLMIYEVTNRPSGVSNRFSGSKSGNTASLTISGLQAEDEAHYYCISYTSSSTLDYVFGTGTKVTVLGGGGSGGGGSGGGGSEVQLVESGPGLVKPSGTLSLTCAVSGGSISSSNWWSWVRQPPGKGLEWIGEIYHSGSTNYNPSLKSRVTISVDKSKNQFSLKLSSVTAADTAVYYCARVGSGYSYGYGDRVLDYWGQGTLVTVSS
notes: On lentivirus-transduced T cells as CAR; also called anti-BCMA scFv BCMA22
B2: BCMA24 (scFv)
scFv: QSVLTQPPSASGTPGQRVTISCSGSSSNIGSYSVNWYQQIPGTAPKLLIYSNNQRPSGVPDRFSGSKSGTSASLAISGLQSEDEADYSCAAWDDSLNGVVFGGGTKLTVLGGGGSGGGGSGGGGSQVQLVQSGAEVKKPGSSVKVSCKASGGTFSSYAISWVRQAPGQGLEWMGGIIPIFGTANYAQKFQGRVTITADESTSTAYMELSSLRSEDTAVYYCARGSFYSSVNVWGQGTTVTVSS
notes: On lentivirus-transduced T cells as CAR; also called anti-BCMA scFv BCMA24
B3: huVH3huVL2 (antibody, human IgG1, kappa, V domains shown)
VH: QVQLQESGPGLVKPSETLSLTCTVSGFSLSDYGVHWVRQSPGKGLEWIGVIWAGGGTNYNSALKSRKTISKDNSKSQVSLKLSSVTAADTAVYYCARDKGYSYYYSMDYWGQGTTVTVSS
VL: DIQLTQSPSSLSASVGDRVTITCRASESVEYYVTSLMQWYQQKPGKAPKLLIFAASNVESGVPSRFSGSGSGTNFTLTISSVQPEDFATYFCQQSRKVPYTFGGGTKLEIKR
B4: huVH1huVL1 (antibody, human IgG1, kappa, V domains shown)
VH: B3 VH with Q3K, L20I, I48L, K64M, S79F, L82M, V85L
VL: B3 VL with A13V, T22S, K46Q, P84E, T89M
notes: also called huVH1VL1; 9.3h11
B5: huVH3huVL1 (antibody, human IgG1, kappa, V domains shown)
VH: B3 VH
VL: B3 VL with A13V, T22S, K46Q, P84E, T89M
B6: huVH5huVL2 (antibody, human IgG1, kappa, V domains shown)
VH: B3 VH with L29I, V37I, S40P, S61P, A62S, K67V, K71V, N73T, S76N
VL: B3 VL
B7: huVH2huVL3 (antibody, human IgG1, kappa, V domains shown)
VH: B3 VH with L20I, S40P, I48L, K64M, N73T, S76N, L82M, V85L
VL: B3 VL with N74D, V82L, F91Y
B8: huVH2huVL2 (antibody, human IgG1, kappa, V domains shown)
VH: B3 VH with L20I, S40P, I48L, K64M, N73T, S76N, L82M, V85L
VL: B3 VL
B9: huVH4huVL3 (antibody, human IgG1, kappa, V domains shown)
VH: B3 VH with V37I, S40P, K67V, K71V, N73T, S76N
VL: B3 VL with N74D, V82L, F91Y
B10: huVH3huVL3 (antibody, human IgG1, kappa, V domains shown)
VH: B3 VH
VL: B3 VL with N74D, V82L, F91Y
B11: huVH4huVL2 (antibody, human IgG1, kappa, V domains shown)
VH: B3 VH with V37I, S40P, K67V, K71V, N73T, S76N
VL: B3 VL
B12: huVH1huVL2 (antibody, human IgG1, kappa, V domains shown)
VH: B3 VH with Q3K, L20I, I48L, K64M, S79F, L82M, V85L
VL: B3 VL
B13: anti-CD123 scFv-C32 (scFv)
scFv: QSVVTQPPSASGTPGQRVTISCSGSSSNIEGNTVSWYQQFPGAAPKLLIYSNSYRASGVPDRFSGSKSGTSASLAISELQSEDEADYYCSAWDDSLNGPVFGGGTKVTVLGGGGSGGGGSGGGGSEVQLVESGGGLVQPGGSLRLSCAASGFTFTSYAMNWVRQAPGKGLEWVSDISSSSSYIYYADSVKGRFTISRDNAKNSLYLQMNSLRAEDTAVYYCARDLYSGYDYGYYYGMDVWGQGTTVTVSS
notes: On mRNA-electroporated T cells as CAR
B14: BCMA23 (scFv)
scFv: QSALTQPPSASGTPGQRVTISCSGSSPNIGGNSVNWYQQLPGTAPKLLMYTNNQRPSGVPDRFSGSKSGTSASLAISGLQSEDEADYYCAAWDDSLNGVVFGGGTKLTVLGGGGSGGGGSGGGGSQVQLVQSGAEVKKPGESLKISCKGSGYSFTSYWIGWVRQMPGKGLEWMGIIYPGDSDTRYSPSFQGQVTISADKSISTAYLQWSSLKASDTAMYYCARRGGALDYWGQGTLVTVSS
notes: On lentivirus-transduced T cells as CAR; also called anti-BCMA scFv BCMA23
B15: anti-CD123 scFv-C33 (scFv)
scFv: DIRLTQSPSSLSASVGDTITITCRASQDISSWIAWYQQKPGTAPRLLIYAASSLQSGVPSRFSGSGSGTDFTLTINSLHPEDFATYYCQQGSTFPLAFGGGTKVEIKGGGGSGGGGSGGGGSQVQLVQSGAEVKKPGSSVKVSCKASGGTFSSYAISWVRQAPGQGLEWMGGIIPIFGTANYAQKFQGRVTITADESTSTAYMELSSLRSEDTAVYYCARGLDNWNDVGWFDPWGQGTLVTVSS
notes: as for B13
B16: anti-CD123 scFv-C34 (scFv)
scFv: QSALTQPPSASGSPGQSVTISCTGTRSDVGAYNYVSWYQHHPGKAPKLMLYDVSKRPSGVSDRFSGSKSGNTASLTVSGLQSEDEANYYCSSYAGSGKYVFGSGTELTVLGGGGSGGGGSGGGGSEVHLVESGGGLVKPGGSLRLSCAASGFTFSDTWMSWVRQAPGKGLEWVGRIKSKTDGGTTNYAAPVKGRFTISRDDSKTTLFLQMNSLKTEDTAVYYCTGGDYPLFAYWGQGALVTVSS
notes: as for B13

Experiments:
[1] = target: T1, BCMA-Fc recombinant protein; experiment: flow cytometry; CAR-T cells stained with 5 µg/mL BCMA-Fc, anti-human IgG Fc
Protocol: (5) Screening for functional anti-BCMA scFv in T cells: the anti-BCMA scFv was constructed into a bicistronic lentiviral CAR expression vector containing an IRES-truncated EGFR (tEGFR) expression cassette. The lentivirus was produced by transient transfection of 293T cells, followed by purification by ultracentrifugation and concentration. T cells were transduced with the CAR lentivirus to generate CAR-T cells, which were then cultured for 10 days. 10 days after lentivirus transduction, CAR-T cells were collected and stained with 5 μg/mL CD19-Fc protein (Ctrl Fc protein) or BCMA-Fc recombinant protein for 30 min at 4° C. After washing, the CAR-T cells were stained with the anti-human IgG Fc and anti-EGFR mAb. The samples were analyzed using a flow cytometer.

[2] = target: T3, recombinant Human/Cynomolgus CD28 (N-6His) (Human/Cynomolgus, UniProt P10747 19-152); experiment: ELISA; plate coated with CD28 (N-6His) 2 µg/mL; HRP-anti-hFc
T3 construct: Bought protein; also called antigen CD28; not shown: 6His tag at the N-terminus (N-6His)
Protocol: The binding activity of the humanized antibody to the antigen CD28 was detected by the ELISA method. The experimental procedures were as follows: [0525] 1. 30 μL of recombinant Human/Cynomolgus CD28 (N-6His) (Suzhou Novoprotein Scientific Inc., C406) at a concentration of 2 μg/mL was added to each well of an ELISA plate, and the plate was incubated at 4° C. overnight. [0526] 2. The next day, the ELISA plate was washed 3 times with PBST (containing 0.05% Tween-20). [0527] 3. 250 μL of 5% skim milk powder (dissolved in PBS) was added to each well of the ELISA plate, and the plate was incubated at room temperature for 2 h. [0528] 4. The plate was washed 3 times with PBST, antibodies with different dilution ratios were added to the ELISA plate at 30 μL/well, and the plate was incubated at room temperature for 60 min. [0529] 5. The plate was washed 3 times with PBST, 30 μL of HRP-anti-hFc antibody was added to each well, and the plate was incubated at room temperature for 60 min. [0530] 6. The plate was washed 3 times with PBST, 30 μL of TMB was added to each well, and after color development at room temperature, 30 μL of 2 M H₂SO₄ was added to each well to stop the reaction. The plate was read at 450 nm.

[3] = target: T4, CD28 (detection antigen of the BLI assay) (human, UniProt P10747 19-152, limits assumed); experiment: BLI (GATOR); antibody loaded at 30 nM, antigen 300-37.5 nM
T4 construct: also called the antigen
From the text: The affinity kinetics of the humanized antibodies were detected using biolayer interferometry (BLI). The experimental procedures were as follows: [0533] 1. GATOR instrument was run, and the Kinetics experimental mode was selected. [0534] 2. The analysis program was run according to Table 5

[4] = target: T2, CD123-Fc recombinant protein; experiment: flow cytometry of T cells electroporated with CAR mRNA, stained with CD123-Fc + PE-anti-hIgG-Fc; Mock 0.36
Protocol: The CD123 CAR mRNAs obtained in Example 35 above were each introduced into T cells by electroporation according to the following procedures: T cells were collected, washed with the Opti-MEM medium, and resuspended at 1×10e⁷/mL with the Opti-MEM medium; 10 μg of RNA and 100 μL of T cells were aliquoted, mixed well, and electroporated under the following parameters (BTX machine): 500 V, 0.7 ms; the cells were then transferred to a pre-warmed medium and cultured at 37° C. The binding of CD123 CART cells to the CD123-Fc recombinant protein was detected by FACS staining. […] Empty vector (Mock) was a control T cell without CAR molecule. A549 tumor cells were electroporated with different amounts of CD123 mRNA. The electroporation procedure was the same as described above, and only the parameters were changed, with the parameters 300 V, 0.5 ms used. CD123 expression in A549 tumor cells was detected by FACS staining of isotype or anti-CD123 antibodies and A549 cells electroporated with different amounts of CD123 mRNA. […] The cytotoxicity of CD123 CART cells against tumor cells was detected in an in vitro cytotoxicity assay. Tumor cells expressing EGFP or EGFP-A549 cells electroporated with different amounts of tumor antigen were seeded at 3000 cells/100 μL/well into a flat-bottom 96-well plate; CART cells were diluted to a proper concentration and seeded to the 100 μL/well tumor cells according to different E/T ratios (e.g., 10:1, 3:1, or 1:1), and the co-culture plate was placed into the IncuCyte S3 machine and scanning parameters were set. After scanning for 3 days, the total green object integrated intensity (GCU×μm²/well) was analyzed to calculate the killing efficiency.

Row | Binder | binding result [1] | EC50 [2] | Kd [3] | koff [3] | kon [3] | percent of cells in the CD123-Fc positive gate [4]
1 | B1 | binds | – | – | – | – | –
2 | B2 | binds | – | – | – | – | –
3 | B3 | – | 0.00914 mg/L | 9.13 nM | 0.000782 s⁻¹ | 85700 M⁻¹ s⁻¹ | –
4 | B4 | – | 0.0151 mg/L | 6.13 nM | 0.000531 s⁻¹ | 86600 M⁻¹ s⁻¹ | –
5 | B5 | – | 0.0121 mg/L | 8.36 nM | 0.000727 s⁻¹ | 86900 M⁻¹ s⁻¹ | –
6 | B6 | – | 0.0151 mg/L | 10.8 nM | 0.000909 s⁻¹ | 84100 M⁻¹ s⁻¹ | –
7 | B7 | – | 0.0104 mg/L | 7.44 nM | 0.000635 s⁻¹ | 85400 M⁻¹ s⁻¹ | –
8 | B8 | – | 0.0126 mg/L | 6.59 nM | 0.000584 s⁻¹ | 88700 M⁻¹ s⁻¹ | –
9 | B9 | – | 0.0127 mg/L | 11.2 nM | 0.000966 s⁻¹ | 86600 M⁻¹ s⁻¹ | –
10 | B10 | – | 0.00827 mg/L | 9.59 nM | 0.000818 s⁻¹ | 85300 M⁻¹ s⁻¹ | –
11 | B11 | – | 0.0126 mg/L | 10.9 nM | 0.000932 s⁻¹ | 85400 M⁻¹ s⁻¹ | –
12 | B12 | – | 0.0125 mg/L | 6.54 nM | 0.000582 s⁻¹ | 89000 M⁻¹ s⁻¹ | –
13 | B13 | – | – | – | – | – | 72.1%
14 | B14 | binds | – | – | – | – | –
15 | B15 | – | – | – | – | – | 58.5%
16 | B16 | – | – | – | – | – | 90.3%
